Assay [1] deals with T1, recombinant murine TNC (mTNC) (murine).
T1 construct: also called recombinant mTNC
Nature of the assay: isothermal fluorescence titration, fluorescently tagged mTNC 700 nM, Nb 500-3500 nM.

For assay [2], the target named is T2, recombinant human Tenascin-C (rhTNC) (human).
T2 construct: It was purified on a Ni column, but no tag is described; also called recombinant hTNC
Briefly: indirect ELISA on rhTNC, Nb dilutions 5x10^-7 M to 5x10^-12 M. In general terms: In an ELISA, binding on a coated surface is turned into a signal by an enzyme label.

Kd and EC50 data for two molecules are collected here from patent EP4047016A1 (Université de Strasbourg, dated 2022).

Broadly, the Kd is the concentration at which binding is half-saturated. Broadly, the EC50 is the concentration that produces a half-maximal response.

B1: single-domain antibody directed against Tenascin-C (TNC) Nb3 (VHH)
VHH: WLQLVESGGGSVQTGGSLRLSCVVSGYTNSIYTLAWFRQAPGKEREGVAAIGSRNGNTYYDASVKDRFTISLDKAKNTVYLQMNDLKPEDTASYYCAAGSSWDLILQAYAYDYWGQGTQVTVSS
modifications: Conjugated to 5 nm colloidal gold in the electron microscopy assay only.
notes: also called C3
Turning to B1, the dissociation constant (Kd) in assay [1] worked out at 711 nM. Also, in assay [2], the 50% effective concentration (EC50) was approximately 10 nM.

B2: single-domain antibody directed against Tenascin-C (TNC) Nb4 (VHH)
VHH: WVQLVESGGGSVQTGGSLRLSCVVSGYTNSIYTLAWFRQAPGKEREGVAAIASRNGNTYYDASVKDRFTISLDKAKNTVYLQMNGLKPEDTASYYCAAGSSWDLILQAYAYDYWGQGTQVTVSS
modifications: Conjugated to 5 nm colloidal gold in the electron microscopy assay only.
notes: Dromedary VHH made in the E. coli WK6 periplasm and purified by IMAC; Conjugated to 5 nm colloidal gold for electron microscopy; also called C4
As for B2, the dissociation constant (Kd) in assay [1] was determined as 537 nM. The half-maximal effective concentration (EC50) in assay [2] is approximately 5 nM.
